From patent publication US10532083B2, “Methods for inducing differentiation or conversion of white adipocytes and/or preadipocytes to brown adipocites using FGF8” (Technische Universität München, priority 2014, dated 2020)

Columns and labels:
[1] = test system: epididymal white adipose tissue; assay type: in vivo, adult male 129Sv/ev mice
Description: Implantation of Ffg8b releasing pellets into the visceral, epididymal white adipose tissue depot leads to recruitment of brown adipocytes. A—Representative photographs centered on the implantation site of three control pellets (upper panels) and three Fgf8b pellets (lower panels). The epididymal fat depot is discernible in light gray shades surrounded by darker non-adipose tissues. The area of visible browning is marked by a dotted line. B—To highlight “visual browning” in this gray-scale images we digitally removed all pixels with a colour saturation of more than 162 (on a scale of 0-255). Here, white areas correspond to brown colour on a background of whitish adipose tissue. C—The mRNA abundance of several brown adipocyte marker genes in the entire depot. Ucp1 and Cox7a1 mRNA are increased by Fgf8b treatment but not by the placebo pellet. Physiological data of animals implanted with drug release pellets. A—The absolute body mass of mice was not altered by Fgf8b. […] C—The masses of the implanted epididymal fat depot and the contralateral non-implanted depot were not different. Interscapular brown adipose tissue was not different in placebo and Fgf8b treated animals. […] E—Plasma metabolites of carbohydrate and lipid metabolisms were not affected by Fgf8b treatment (GLU—glucose, CHOL—total cholesterol, nHDLc—non-HDL cholesterol, HDL—high density lipoproteins, LDL—low density lipoproteins, VLDL—very low density lipoproteins, TRIG—triglycerides). F—Liver enzymes in the plasma were not altered by Fgf8b treatment. Pellets 1.5 mm in diameter were fabricated from a biodegradable matrix to locally release 100 ng FGF8b per day for 21 days (Innovative Research of America, Sarasota, Fla., USA). […] To implant a pellet into the subcutaneous adipose tissue, a mouse of the 129Sv/ev strain was anesthetized, abdominal fur removed and the pellet pushed into the depot through a short cut in the skin. To target the visceral adipose tissue, the pellet was introduced through a small cut each into skin and abdominal wall and placed between lobes of epididymal adipose tissue. Mice were kept in a specific pathogen free barrier facility at room temperature in a 12:12 hour light:dark cycle with free access to food and water. Three weeks after implantation mice were killed by carbon dioxide exposure and dissected. Blood parameters were analyzed with an automated clinical chemistry analyzer (Piccolo xpress system, Abaxis, Darmstadt, Germany). All animal experiments were performed according to the German animal welfare law (permission no. 55.2-1-54-2532-174-11). To investigate the ability of FGF8b to transform white adipose tissue into brown adipose tissue in vivo, we obtained pellets that release 100 ng FGF8b per day and placebo pellets. One pellet each was implanted into the epididymal white adipose tissue of adult male 129Sv/ev mice. After three weeks mice were sacrificed and the tissue analyzed. […] In summary, we found no evidence of any gross metabolic difference between treatment groups.

[2] = test system: visceral, epididymal white adipocytes; experiment: Ucp1 / brown adipocyte marker mRNA (qPCR) in immortalized epididymal white adipocytes treated with FGFs; assay type: cell-based, murine
[3] = RNA preparation of complete unilateral epididymal depot, 100 ng per day, three weeks, vs placebo pellet
[4] = continuous treatment during differentiation, fully differentiated cells (FIG. 2B)
[5] = epididymal cells treated 48 hours during proliferation prior to induction
[6] = epididymal cells treated 48 hours during proliferation prior to induction, sampled acute to d6 p.i.

B1: FGF8b: murine recombinant paracrine fibroblast growth factor 8, major spliceform b (R&D Systems); amino acid sequence identical to human, SEQ ID NO:16/20 (protein)
chain: MGSPRSALSCLLLHLLVLCLQAQVTVQSSPNFTQHVREQSLVTDQLSRRLIRTYQLYSRTSGKHVQVLANKRINAMAEDGDPFAKLIVETDTFGSRVRVRGAETGLYICMNKKGKLIAKSNGKGKDCVFTEIVLENNYTALQNAKYEGWYMAFTRKGRPRKGSKTRQHQREVHFMKRLPRGHHTTEQSLRFEFLNYPPFTRSLRGSQRTWAPEPR
modifications: human FGF8b
[1]; 100 ng per day, three weeks, vs placebo (FIG. 7D)
  Relationship between depot mass and body mass: not influenced
[1]; 100 ng per day, three weeks, vs placebo group
  Depot mass of implanted and non-implanted epididymal fat and of interscapular brown adipose tissue: not different between groups
[1]; 100 ng per day, three weeks, vs placebo group, lean healthy mice
  Final body weight: comparable
[1]; 100 ng per day, three weeks, vs placebo, Piccolo xpress analyzer
  Plasma metabolites of carbohydrate and lipid metabolisms (GLU, CHOL, nHDLc, HDL, LDL, VLDL, TRIG): not affected
[1]; 100 ng per day, vs placebo group
  Change in body weight during the 3 weeks of treatment: comparable
[1]; [3]
  Cox7a1 mRNA abundance in the entire depot: increased
  Ucp1 mRNA abundance in the entire depot: increased
[1]; mouse, in vivo
  Systemic adverse reaction: no evidence for any systemic adverse reaction
[1]; one pellet releasing 100 ng FGF8b per day, three weeks
  Extent of browned area away from the implanted pellet: approximately 3 mm
[1]; one pellet releasing 100 ng FGF8b per day, three weeks, placebo site and contralateral depot remained white
  Colour of implantation site and surrounding adipose tissue by visual inspection: brown colour
[2]; [4]
  Cox7a1 mRNA: not or only slightly increased
  Elovl3 mRNA: not or only slightly increased
[2]; epididymal adipocytes, treatment during differentiation, greater effect size than in inguinal
  Cidea mRNA abundance: increased
[2]; [5]
  Cox7a1 mRNA abundance in mature adipocytes: increased
  Foxc2 mRNA abundance, acute response: do not acutely respond
  Prdm16 mRNA abundance, timecourse: transient increase in abundance directly following induction
  pRb mRNA abundance, acute response: do not acutely respond
[2]; [6]
  Cidea mRNA abundance, timecourse: already increasing on day 4 p.i.
  Elovl3 mRNA abundance, timecourse: already increasing on day 4 p.i.
[2]; epididymal cells treated 48 hours during proliferation prior to induction, sampled acute, d1, d2, d4, d6 p.i., normalized to untreated
  Ucp1 mRNA abundance, timecourse: increased 6 days after induction for the first time
[2]; epididymal cells treated 48 hours during proliferation, day 6 p.i.
  Pgc1a mRNA abundance after complete differentiation: increased Pgc1a mRNA abundance
[2]; epididymal cells treated 48 hours during proliferation, sample immediately after treatment
  Pgc1a mRNA abundance, acute: acutely downregulated
[2]; epididymal cells, comparably late treatment (fully differentiated state)
  Final Ucp1 mRNA abundance after full differentiation (responsiveness): respond
[2]; epididymal cells, treatment during the entire differentiation period
  Final Ucp1 mRNA abundance after full differentiation: strongest Ucp1 induction
